{
  "source": "paper PMC6377645",
  "about": "“Structural insights into chaperone addiction of toxin-antitoxin systems” (Nature Communications, 2019)",
  "target": "Mtb-HigA1^ΔC42 (Mtb-HigA1 deleted of the last 42 residues) (Mycobacterium tuberculosis)",
  "experiment": "SEC-MALS; Superdex 200 Increase 5/150; 20 mM MES, 200 mM NaCl, pH 6.5; 15 °C; Mtb-SecB^TA 49.1 µM, Mtb-SecB^TA/HigA1 6.5 µM, Mtb-HigA1^ΔC42 100 µM",
  "data": [
    {"substance": "Mtb-HigA1^ΔC42 (Mtb-HigA1 deleted of the last 42 residues) (domain or fragment)", "values": [
      {"measurement": "stoichiometry N", "value": 2}
    ]}
  ]
}
